assay: soluble on expression in E. coli; label from the status in PepcDB or PDB records

| Sequence | soluble on expression in E. coli |
| --- | --- |
| MGSDKIHHHHHHMKKFTLDYLSPRVVFGAGTASALPDEIGRLGARRPLVLSSPEQRELAKDIVRPIGDRVAGYFDGATMHVPVDVIQKAERAFNDTDADSIIAIGGGSTTGLAKILSMNLDVPSLVIPTTYAGSEMTTIWGVTEGGMKRTGRDPKVLPKTVIYDPLLTVDLPLAISVTSALNAIAHAAEGLYSADLNPVLETMCKQGICALFDAIPRLVAKPTDAEARTDALFGAWMCGTALCHLGMGLHHKLCHTLGGTLNLPHAETHAIVLPHALAYNLPYAAPAERLLQEVAGSSDVPSALYDLARNAGAPLSLAEIGMRPEDIPRVRDLALRDQYPNPRPLESDALETLLVNAFRGRRPDFK | not soluble |
| LQTVCLKGTKHMKCFLAFTQTKTFHEASEDCISRGGTLSTPQTGSENDALYEYLRQSVGNEAEIWLGLNKRWSRYFWVDMTGTRIAYKNWEHSSDAQPDPSNWENCAVLSGAANGKWFGKRCRDQLPYICQFGI | soluble |
| MSLNKKIEELNKLDKKVVLAPMAGITDGDFCRKFKDLFAIVTIGGYNLDSATYKASRDIEKRGRKEFSINLEEFNSYIIEQIKKARESNALVSVNVRFVDIDEAYDKLLTIAKHADIIELNCHCRQPEITSLGIGQELMKNKNLLKEFLTKMKELNKPIFLKIRLNCIPLKELIDNLNYVRDYFDGLHVDCFYPGKPYADMDSLKILAEEFNDKIIIGNNSIDSIEKAKEMLKYSDFVSVARTILKGNVEWIKELNKENIEGHHHHHH | soluble |
| LYWGDGQVWFDLPDKVTTHDSQLVGNLTELLKSVEHSFVLISPYFIPTEAGTKALTNAAKRGVDITIVTNSLASNDVFAVHGWYAKYREDLLESGIKLWEVKSSAKLKSKWSLTGSSRASLHAKAMTIDDKTLFVGSMNWDPRSAALNTEMAVVIEQPEYVQAFLAKLPSQLKDNAYRLTLRDGDIVWTNTKTGEEYDSEPEAGVFRRLGAWFSGILPIEDQL | not soluble |
| MGRWWRYKWITFHPSLTQHWLWYAYNTKTGGVLAYTFGPRNDETCRELLALLTPFCIGMVTSDDWGSYAREVPKEKHLTGKIFTQRIARNNRTLRTRIKRLARKTICFSRSVEIHEKVIGSFIEKHMFYLEHHHHHH | soluble |
| DRWIRPRGAFGGLPSLKSSFVLSESTVPGTNETVKTFLPYGSVINYYGYVKPGQAPDGLVDGNKKAYYLYVWIPAVIAEMGVRMISPTGEIGEPGDGDLVSDAFKAATPEEKSMPHWFDTWIRVERMSAIMPDQIAKAAKAKPVQKLDDDDDGDDTYKEERHNKYNSLTRIKIPNPPKSFDDLKNIDTKKLLVRGLYRISFTTYKPGEVKGSFVASVGLLFPPGIPGVSPLIHSNPEELQKQAIAAEESLKKAASDATK | soluble |
| NRFIGYIQVACCCLLLCASCVRDGMDEDCNSYVRFVYDYNLEYIDLFHKQATKMNLYVFDEKGVFVTELKEESGAFAPDYLMTLPGAMAGRRYIFVAWSGLYGESYDKVTLTPGVSTLEDLEVSVNNLKTRIGGGVVDRELHLLWHGKQTEVSPQYNNDITTVSLLKNTKKFRIIMQMLDDSSIHVDDYDFRIISPNGRYNHENGLLGDETDEKVEYTAYHTEDDPETGAIAELNTLRLMTDTENRLVITHKSSGNVILDIPLNKYLNALRLQQYADIPLQEYLDRADKHGIILFFKGMDGNGNYISVDVQINGWLIRKQEVD | not soluble |
| MDLIFSLGVMIMPLTPPASPKTERRSEEDNQQTNQQGNEQGNQQPRSSILTLFGFTPNALVMPCPHGHGHFHIMDIQADDTLVFATMNGSPEIMSLLALQFLMQNVNLNLDDMLAAETDAKEAEEKEEQELSSSESVNEEKEEAEFSSSESENEEKEEENEESSRFTM | not soluble |
| MLIAIEGVDGAGKRTLVEKLSGAFRAAGRSVATLAFPRYGQSVAADIAAEALHGEHGDLASSVYAMATLFALDRAGAVHTIQGLCRGYDVVILDRYVASNAAYSAARLHENAAGKAAAWVQRIEFARLGLPKPDWQVLLAVSAELAGERSRGRAQRDPGRARDNYERDAELQQRTGAVYAELAAQGWGGRWLVVGADVDPGRLAATLAPPDVPS | soluble |
| MGSDKIHHHHHHMWFRNLLIYRLAGEVITSDELEAYLAKQTLQGCLGLEPQSRGWVPPGIAEADLVYSYGQQMLIALGTEKKLLPASVVNQLAKVRAQEMESHQGYAPGRKQMKEIKEAAYRELLSRAFAIRQRSHAWIDPVGGWFIVEGASASKADALIEAFIKSTGIGLKRIRTTMAPTSAMTAWLSGDDPPAIFSVDSDSIFRSREDKKVSVSYIRQSPDPQEITRHVRTGKEVIRLAMTWRDKISFILDENLQLKRLTLLDIDREPAETAEEQFDSNFFLMTEELRQLLPDLVEILGGMTAD | not soluble |
| VPMDELNERIFKEVVMYLRQHIKNYDNILDALRSTFHSTNHVEKLFFGGKINMLNQPEFHDITRVRSLLSLIEKEQDVLKLVQSPHTGISIKIGKENDYEEMENCSLITASYSVDQKQIGSIAIIGPTRMNYSRVVSLLQHVTSDLSKALTSLYDE | not soluble |
| MHERHRFWQRALRLLSLGVPREASSALFGHDHSLQQETWLRSLQKEKQHIIDWHDRLTDIPFVIIDMETTGFSPEQGDEILAMAAAKTVGGVVTDAYMTLVKPEKPIPEHISALTGIEAKDVVFAPPLAEALRTFVPFIAAGVLIGYHIGHDLAFLRHALWRHYRQKWSGRFVDLQPMMTLIGHSCPTFDDALACYGICCPRRHTADGDVEAMAKLWAILLDEFRQRGIDTLHDLYAALSRC | not soluble |
| MSEIPTEVPVKTRKRTYDLKFKLHAINYALEHKNISKAAKDLNVNRQNIQQWIAQKAEIEKQLEDNGSTATKRLSGGGRPLKYDDVDKELIKWVHDQRKEKQRVTRRIIGETAKKISQNSDFKASRGWLDKFMCRHNLSTRRARTEPGDLMQTLVDILLRQTSSDDGEEDPMISFIKSCIPSGEDPLEGEDQAASSSVQVPKVLAEENGHESDSDQSIVDVND | not soluble |
| MGSDKIHHHHHHMLDDIKKTLWATADKQRANMDAAEYKHIVLGLIFLKYISDTFAGRRAELTRRFADENDEYFLRECDDELLAEELEDRDYYREVNVFWVPETARWESLRSAAKQTDIGKRIDEALAEIEAENPKLKGILDKRYARSQLPDGKLGELVDLISTIGFGEDASHARDVLGQVYEYFLGQFASAEGKKGGQFYTPASIVKTLVAVLAPHHGKVYDPCCGSGGMFVQSEKFIEAHGGKLGDVSIYGQESNPTTWRLAAMNLAIRGIDYNLGREPADTFVRNQHPDLRADFVLANPPFNVSDWWHGSLEGDPRWVYGTPPQGNANYAWLQHMLYHLKPNGRAGIVLANGSMSSSQNSEGDIRRAMVDADVVEVMVALPGQLFFNTQIPACLWFLAKQKTTRKGEVLFIDARKLGSMISRVQTELTDEIIERIANTVAAWRGEAIDGVGEYADVPGYCRSVKLAEIAEHGHVLTPGRYVGAEKVEDDDEAFVEKMQKLTEMLGEQMAKGAELDQLIRQKLGGMGYEF | not soluble |
| MSLELAQQWTQQRQALGERDDAMAALKTLDSSYAATTVFPPKGEVSLHERAGLYQGNEVNPPLAAAYRRELETQLLPRVARMLEAQIRGNMQNRERLLNSLRAYLMLNLRERRENGWLKDWVATDWSQRYAGNGTVQNGLNTHFARLLEQPFSYPLNETLVAQARQVLRSESLANVVYRVLREQARSLPEYRFGQHLGPQAGLFVGTDYVIPGFYTQQGYQQYFVVQGASLVNDILRDNWVLGEGSGISDMDLRRLMVELEQLYFRDYANFWSEAVGRLGLLPFNDAGEGADQVSGLLAANSPILQLLLEVRENTRFPVLAESAEALAEASDKAAEKGGKLGKAAAAAAGKARDALAKNLPDTAKKSLQRRFEPLHRLLDDNNGPAADLTPLLQALNELQLQLAGLARASQPEQEGHHHHHH | soluble |
| MVSARLIFVPLHARPSGISSATTGYVPWRSFIYRNGGGRPVQSSRPWLNMQQTLRITEIFYSLQGETRTAGLPTVFVRLTGCPLRCHYCDTAYAFSGGDVVSLDAIFERVAAYKPRYICVTGGEPLAQPNCISLLERLCDAGYEVSLETSGALDVSRVDPRVSKVLDLKTPGSGEVGRNRYENIPLLTDNDQVKFVVCSREDYDWAVSKLIEYRLDQRAGEVLFSPSHHQVSARELADWIVADNLPVRLQLQLHKILWNDEPGH | soluble |
| MAHHHHHHMKALQRGWRVICATRGGVPIHGSPLYNDFTSLQQKHGDTLSQGVAHDTCHVPQPLEFVSLDATSRLQVFQFMDDHPDASAIISCIGLLTRDHEMARRVCGDANVNIAAALYERRAVARRMVLISAEPVGTRAGFFLNSRWALKGYFMGKRVAERAVLENLGDDGAVLRPGFIYGTRHVPLGEGCVPVPLWPIGKPLEAVLRPLHLHGLLVPPISVDVVAEAAVRLAEAPGPSTVLDYYGMQQVCGLPQDGHHVLGG | not soluble |
| MRGLKTFSILGLIVALLLVAACGNTDNSSKKESSTKDTISVKDENGTVKVPKDAKRIVVLEYSFADALAALDVKPVGIADDGKKKRIIKPVREKIGDYTSVGTRKQPNLEEISKLKPDLIIADSSRHKGINKELNKIAPTLSLKSFDGDYKQNINSFKTIAKALNKEKEGEKRLAEHDKLINKYKDEIKFDRNQKVLPAVVAKAGLLAHPNYSYVGQFLNELGFKNALSDDVTKGLSKYLKGPYLQLDTEHLADLNPERMIIMTDHAKKDSAEFKKLQEDATWKKLNAVKNNRVDIVDRDVWARSRGLISSEEMAKELVELSKKEQK | not soluble |
| MGSDKIHHHHHHMRYAFWNNKGGTGKTSLAFQSICRFAELNPHARILAIDVCPQANLSELMLGGLTNQGSARLMQRQGQVPRCSIGGYFQLRLPAPYTRPAFTASDFITTPNQYNPLIPGNIDLVCGDPLLELQANAVNTLANAQIPGTNTWIAVIDWISDFLESAEGYDYVFFDANPSFSIYTQIALSATNRVILPVMADDSSRRAIQNAFSLIYGLRLPSPIYATYNFATKLREAERPLPQVHLIPKNRLTQYMGPASAFYAVLAAIDQDVAGLLVQRPDLFTFADVADGVVDVRDFQTTGVVSYAKGAPFSQLRTGRLDIGGHRVRVDADMRQNCIDAIDGLVDRIE | not soluble |
| GPGSMPPKKGKKLKKKVKLQVPPQYEEQISKEPVSDPPTSQQSITSLPISVVEAALAVEESPEEDIVTFGAEALNRLLSMRHPQQIAADLTRSLSSLRQRLAQLEMEWLGFESSAVGSTYACRARDQKDKLEHEVRKTEKMTRHLILLGRVLDRIFELRTSVFDTERTAMEAEVEELTKRVEKNDEEIRSCYINRISLLHRYWVWRTLQELGDMTVGRTFAEELARGPRYRSIAIQNRILSDTLERQLEWLQRFLEKEEVFCGRVRQLERFVEEFTDMNDALEEVLTCRVCNLLFEDPVVFWPCGHSFCLQCFDSLSVAPSLFRCPLCGSMGSEGYVHNLLLSESVAKWMFKDACYADVHGALSLVRLHLSKFRRNIISSRMEQLEERLTAERGRELASDTLDDMDIVYRAY | not soluble |
| MSREDELLEKLDECENATAFLQVSNKIINLKLKALLPSVFVQDDLVKEYAVDPLLREDGPLVTTDVVSKLMFAMGKISLQTYADIGLYDQVLEYVVTQPEKIAFTDDVIYDFIKNQAVLSSQQDCFYLESINQLKFSSFESFSQMRYESLIKTVLKLSCEMLIERIEEEINQ | soluble |
| MASSASDGTHERSAFRLSPPVLSGAMGPFMHTGLYVAQSWRDYLGQQPDKLPIARPTIALAAQAFRDEIVLLGLKARRPVSNHRVFERISQEVAAGLEFYGNRRWLEKPSGFFAQPPPLTEVAVRKVKDRRRSFYRIFFDSGFTPHPGEPGSQRWLSYTANNREYALLLRHPEPRPWLVCVHGTEMGRAPLDLAVFRAWKLHDELGLNIVMPVLPMHGPRGQGLPKGAVFPGEDVLDDVHGTAQAVWDIRRLLSWIRSQEEESLIGLNGLSLGGYIASLVASLEEGLACAILGVPVADLIELLGRHCGLRHKDPRRHTVKMAEPIGRMISPLSLTPLVPMPGRFIYAGIADRLVHPREQVTRLWEHWGKPEIVWYPGGHTGFFQSRPVRRFVQAALEQSGLLDAPRTQRDRSA | not soluble |
